Laboratory results: the nanobody polyreactivity screen of Harvey et al. (2022)

test: yeast display, Sf9 membrane polyspecificity reagent, FACS + sequencing; frameworks hold sequencing errors
Procedure, shortened: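 Nanobodies came from a synthetic yeast display library in Saccharomyces cerevisiae BJ5465, induced with galactose for 36–48 hours and stained for 1 hour at 4 °C with 10% biotinylated, detergent-solubilized Sf9 membrane reagent. Cells were enriched on streptavidin microbeads and then FACS-sorted, with low and high (top ~1%) gates set on anti-HA fluorescence for expression and streptavidin fluorescence for reagent binding. Each polyreactivity label reflects the gate a clone came from. Genes were amplified by colony PCR, sequenced by MiSeq 2 × 250 and filtered by CDR length.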

Row | Sequence | polyreactivity (PSR sort gate)
1 | QVQLVESGGGLVQAGGSLRLSCAASGIIFRRYAMGWYRQAPGKEREFVAAIRYTGGGTYYADSVKGRFTISRDNAKNTVYLQMNSLKPEDTAVYYCAARDRDTRNYYWGQGTQVTVSS | high polyreactivity
2 | QVQLVESGGGLVQAGGSLRLSCAASGIIFRSYAMGWYRQAPGKERELVAGITRVGSTYYADSVKGRFTISRDNAKNTVYLQMHSLKPEDTAVYYCNAYNYWSDDYWGQGTQVTVSS | high polyreactivity
3 | QVQLVESGGGLVQAGGSLRLSCAASGIIFRSYTMGWYRQAPGKERELVASITRSGGITYYADSVKGRFTISRDNAKNTVYLQMNSLKPEDTAVYYCSARHRYYSYSGYDYWGQGTQVTVSS | high polyreactivity
4 | QVQLVESGGGLVQAGGSLRLSCAASGIIFRTNAMGWYRKAPGKEREFVAAISAGGTRTYYADSVKGRFTISRDNAKNTVYLQMNSLKPEDTAVYYCAAASGYDYWGQGTQVTVSS | high polyreactivity
5 | QVQLVESGGGLVQAGGSLRLSCAASGIIFRYNTMGWYRQAPGKERELVAAITRSGGSTYYADSVKGRFTISRDNAKNTVYLQMNSLKPEDTAVYYCAAQGYSYRHTAFEYWGQGTQVTVSS | high polyreactivity
6 | QVQLVESGGGLVQAGGSLRLSCAASGIIFRYYAMGWYRQAPGKERELVARITSRAGRTYYADSVKGRFTISRDYAKYTVYLQMNSLKPEDTAVYYCAARLYGRYGYWGQGTQVTVSS | high polyreactivity
7 | QVQLVESGGGLVQAGGSLRLSCAASGIIFRYYTMGWYRQAPGTERELVAAITSGGSTNYADSVKGRFTISRDNAKNTVYLQMNSLKPEDTAVYYCRQFSVWGYDYWGQGTQVTVSS | high polyreactivity
8 | QVQLVESGGGLVQAGGSLRLSCAASGIIFSFYAMGWYRKAPGKERELVAAISQSGGSTYYADSVKGRFTISRDNAKNTVYLQMNSLKPEDTAVYYCAVAGWYGSEYWGQGTQVTVSS | high polyreactivity
9 | QVQLVESGGGLVQAGGSLRLSCAASGIIFSFYAMGWYRQAPGKERELVAAISRSGGSTYYADSVKGRFTISRDNAKNTVYLQMNSLKPEDTAVYYCNADNGASYYYRRYDSWGQGTQVTVSS | high polyreactivity
10 | QVQLVESGGGLVQAGGSLRLSCAASGIIFSGYARGWSRQAPGKERELVAVISSSGGGTYYADSVKGRFTISRDNAKNTVYLHMNSLKPEDTAVYYCAARGREAIHGYWGQGTQVTVSS | high polyreactivity
11 | QVQLVESGGGLVQAGGSLRLSCAASGIIFSRYAMGWYRQAPGKERELVAAISSSGGTTYYADSVKGRFTISRDNAKNTVYLQMNSLKPEDTAVYYCYAPAFYKYKSFYAHSGYDYWGQGTQVTVSS | high polyreactivity
12 | QVQLVESGGGLVQAGGSLRLSCAASGIIFSSNAMGWYRQAPGKERELVAAISRRGGSTSYADSVKGRFTISRDNAKNTVYLQINSLKPEDTAVYYCAARYVYPGEDYWGQGTQVTVSS | high polyreactivity
13 | QVQLVESGGGLVQAGGSLRLSCAASGIIFSSNAMGWYRQAPGKERELVAAITRRGGSTRYADSVKGRFTISRDNAKNTVYLQMNSLKPEDTAVYYCNALTGYPYRWGISYPMDYWGQGTQVTVSS | high polyreactivity
14 | QVQLVESGGGLVQAGGSLRLSCAASGIIFSSSAMGWYRQAPGKEREVVAAITSCGNTNYADSVKGRFTISRDNAKNTVYLQMNSLNPEDTAVYYCNAETSFVWLAWHPYGFGDWGQGTQVTVSS | low polyreactivity
15 | QVQLVESGGGLVQAGGSLRLSCAASGIIFSTNAMGWYRQAPGKERELVAAISWDGSSTYYADSVKGRFTISRDNAKNTVYLQMNSLKPEDTAVYYCAADQSTVLDVGSWGQGTQVTVSS | low polyreactivity
16 | QVQLVESGGGLVQAGGSLRLSCAASGIIFSWYAMGWYRQAPGKERELVASITASGGSTYYADSVKGRFTISRDTAKNTVSFQMHSLKPEDTAVYYCAVRYGHRSFASVYVEYDYWGQGTQVTVSS | low polyreactivity
17 | QVQLVESGGGLVQAGGSLRLSCAASGIIFSYNVMGWYRQAPGKEREFVADITWNGGSTYYADSVKGRFTISRDNAKNTVYLQMNSLKPEDTAVYYCATGWPWYSNYASAYDYWGQGTQVTVSS | low polyreactivity
18 | QVQLVESGGGLVQAGGSLRLSCAASGIIFSYYARGWYRQAPGKDRELVAAISSSGVSTNYADSVKGRFTISRDNAKNTVYLQMTSLKPEDTAVYYCAADYGSWSNWGYEYWGQGTQVTVSS | high polyreactivity
19 | QVQLVESGGGLVQAGGSLRLSCAASGIIFTDNAMGWSRQAPGKERELVAAISCRGGSTYYADSVKGRFTISRDNAKNTVYLQMNSLKPEDTAVYYCARYGTDHRLGYGYWGQGTQVTVSS | low polyreactivity
20 | QVQLVESGGGLVQAGGSLRLSCAASGIIFTDTAMGGYTQPPGKVRELVATISWSTDNTYYADSVKGRFTISRDNAKNTVYLQMNSLKPEDTAVYYCAAEEFYAYWYQSDYWGQGTQVTVSS | low polyreactivity
21 | QVQLVESGGGLVQAGGSLRLSCAASGIIFTGNAMGWYIQAPGKERELVAAITSGDTTNYADSVKGRFTISRDNAKNTVYLQMNSLKPEDSAVYYCAKELQVRQAGDYWGQGTQVTVSS | low polyreactivity

Row | Sequence | polyreactivity (PSR sort gate)
22 | QVQLVESGGGLVQAGGSLRLSCAASGIIFTGYAMGWYRQAPGKERELVAAISGSGGRTYYSDSVKGRFTISRDNAKNTVYLQMNSLKPEDTAVYYCAAYRVSDYDYWGQGTQVTVSS | high polyreactivity
23 | QVQLVESGGGLVQAGGSLRLSCAASGIIFTNYAMGWYRQAPGKERELVAAISSSSGTTYYADSVKGRFTISRDNAKNTDYLQMNSLKPEDTALYYCNAGRSWRRTHYDYWVQGTQVTVSS | high polyreactivity
24 | QVQLVESGGGLVQAGGSLRLSCAASGIIFTNYGMGWYRQAPGKERELGAVISRRGGSTYYADSVKGRFTISRDNAKNTVYLQMNSLKPEDTAVYYCNTRTQGAKQYTGYDYWGQGTQVTVSS | high polyreactivity
25 | QVQLVESGGGLVQAGGSLRLSCAASGIIFTNYSMGWYRQAPGKERELVAAISKGAGRTYYADSVKGRFTISRDNAKNTVYLQMNSLKPEDTAVYYCNKAKRSGGYPGVFSYDYWGQGTQVTVSS | high polyreactivity
26 | QVQLVESGGGLVQAGGSLRLSCAASGIIFTSYAMGWYRQAPGKEREFVAGISVRGSSTYYADSVKGRFTISRDNAKNTVYLQMNSLKAEDTAVYYCAARTPSRYLYYEYDYWGQGTQVTVSS | low polyreactivity
27 | QVQLVESGGGLVQAGGSLRLSCAASGIIFTTNAMGWYRQAPGKERELVATISTGGGTYYADSVKGRFTSSRDNAKNTVYLQMHSLKPEDTAVYYCAATPGWGPWIFDHSYVDFDYWGQGTQVTVSS | low polyreactivity
28 | QVQLVESGGGLVQAGGSLRLSCAASGIIFVAYAMGWYRPAPGKERELVAAITKSGVRTYYADSVKGRFTISRGNAKNTVYLQMNSLKPEDTAVYYCAADRGVGVYYWGQGTQATVSS | high polyreactivity
29 | QVQLVESGGGLVQAGGSLRLSCAASGIIFVEYAMGWYRQAPGKERELVARIRYSGGSTYYADSVKGRFTISRDNAKNTVYLQMNSLKPEDTAVYYCNALFPYIYDYWGQGTQVTVSS | low polyreactivity
30 | QVQLVESGGGLVQAGGSLRLSCAASGIIFVLYDMGWYRPAPGKERELVAAIDKSGGSTYYADSVKGRFTISRDNAKNTVYLQMNSLKPEDTAVYYCNARVVWRNPSYLKSSYDYWGQGTQVTVSS | low polyreactivity
31 | QVQLVESGGGLVQAGGSLRLSCAASGIIFVRNAMGWYRQAPGKERELVAAISRSGGSTYYADSVKGRFTISRDNAKNTVYLQMNSLKPEDTAVYYCAAVMRLSSGYDYWGQGTQVTVSS | high polyreactivity
32 | QVQLVESGGGLVQAGGSLRLSCAASGIIFVRNVMGWYRQAPGKERELVAAITNGGSTYYADSVKGRFTISRDNAKNTVYLQMNSLQPEDTAVYYCAALTGVRRRYYYWGQGTQVTVSS | high polyreactivity
33 | QVQLVESGGGLVQAGGSLRLSCAASGIIFVRYTMGWYRQAPGKERELVAAISSSGGSTYYADSVKGRFTISRDNAKNTVYLQMNSLKPEDTAVYYCNAEIRDNNVGYYTDYDYWGQGTQVTVSS | high polyreactivity
34 | QVQLVESGGGLVQAGGSLRLSCAASGIIFVSYAMGWYRQAPGKERELVAAITRRGSRTYYADSVKGRFTISRDNAKNTVYLQMNSLKPEDTAVYYCAADSQAARYHAYDYWGQGTQVTVSS | high polyreactivity
35 | QVQLVESGGGLVQAGGSLRLSCAASGIIFVSYAMGWYRQAPGKERELVADITSGGRTYYADSVKGRFTISRDNAKNTVYLQMNSLKPEDTAGYYCAATYSYKGRWVWVYYWGQGTQVTVSS | high polyreactivity
36 | QVQLVESGGGLVQAGGSLRLSCAASGIIFVVNDMGWYRQAPGKERELVADISDSGGSTNYADSVKGRFTISRDNAKNTVYLQMNSLKPEDTAVYYCNADGITSLPVPALDYWGQGTQVTVSS | low polyreactivity
37 | QVQLVESGGGLVQAGGSLRLSCAASGIIFVWNAMGWYRQAPGKERALVAAITNGGSTYYADSVKGRFTISRDNAKTTVYLQMTSLKPEETAVDYCHVRYFFRFRDDYWGQGTQVTVSS | low polyreactivity
38 | QVQLVESGGGLVQAGGSLRLSCAASGIIFVYYVMGWYRQAPGKERELVASIDGSGGSTNYADSVKGRFTISRDNAKNTVYLQMNSLKPEDTAVYYCNADNILYWSTLDYLGQGTQVTVSS | low polyreactivity
39 | QVQLVESGGGLVQAGGSLRLSCAASGIIFWDNAMGWYRQAPGKERELVASINYSGGSTYYADSVKGRFTISRDNAKNTVYLQMNSLKPEDTAVYYCAARTVTLDDWDYAYDYWGQGTQVTVSS | low polyreactivity
40 | QVQLVESGGGLVQAGGSLRLSCAASGIIFWDYAMGWSRQAPGKEREIVAAINTSGGTTTYADSVKGRFTISRDNAKNTVYLKMNSLKPEDTAVYYCAADTWGYYSYAYYYWGQGTQVTVSS | low polyreactivity
41 | QVQLVESGGGLVQAGGSLRLSCAASGIIFWFYAMGWYRQAPGKERELVAVISWNGDSTYYADSVKGRFTISRDNAKNTVYLQMNSLKPEDTEVYYCSAETYLGVYGSEYDYWGQGTQVTVSS | low polyreactivity
